Our source for the protein stability index values is the supplement of paper PMC10567573.

First the molecules themselves.
B1: KRT71 (parent)
chain: ELRNVQDVVEDYKKRYEEEINKRT
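Note: lentivirally expressed fusions sorted by FACS into six bins by GFP to DsRed ratio, PSI derived from sequencing read proportions per bin multiplied by bin number.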

This data set covers variants of B1. The data set can be described thus: protein stability index of a GFP-peptide fusion (GPS, HEK-293T) (PSI 1-6); higher = more stable. Conditions: c terminus: a fixed tail appended.
Consider ELRNVQDVVEEYKKRYEEEINKRT [D11E], for which the protein stability index is 3.5.
As to ELRNVQDVVEQYKKRYEEEINKRT [D11Q], the protein stability index was found to be 4.23.
Take ELRNVQDVVEDYKKRYECEINKRT [E18C]: the protein stability index was 4.57.
As for ELRNVQDVVEDYKKRYEREINKRT [E18R], the figure is 4.26; as for ELRNVQDVVEDYKKRYENEINKRT [E18N], 3.31; as for ELRNVQNVVEDYKKRYEEEINKRT [D7N], 3.36.
Under ELRNVQIVVEDYKKRYEEEINKRT [D7I] stands 2.62; under ELRNVQDVVEDYKKRLEEEINKRT [Y16L], 4.31.
ELRNVQDVVEDYKKREEEEINKRT [Y16E]: the protein stability index turned out to be 4.33.
ELRNVQDVVEDYKKRQEEEINKRT [Y16Q]: the protein stability index is 3.52.
In the case of ELRNVQDVVEDYKKRTEEEINKRT [Y16T], the protein stability index turned out to be 3.89.
Under ELRNVQDVVEDYKKRDEEEINKRT [Y16D] stands 4.38; under ELRNWQDVVEDYKKRYEEEINKRT [V5W], 3.7; under ELRNSQDVVEDYKKRYEEEINKRT [V5S], 4.01.
Under ELRNIQDVVEDYKKRYEEEINKRT [V5I] stands 3.88; under ELRNQQDVVEDYKKRYEEEINKRT [V5Q], 4.24; under ELRNVQDVVEDYKKRYQEEINKRT [E17Q], 3.8.
Regarding ELRNVQDVVEDYKKRYMEEINKRT [E17M], the protein stability index was found to be 3.02.
For ELRNVQDVVEDYKKRYSEEINKRT [E17S], the protein stability index came to 3.86.
For ELRNVQDVVEDYKKRYYEEINKRT [E17Y], the protein stability index was 3.15.
Take ELRNVQDVVEDYKKRYREEINKRT [E17R]: the protein stability index amounted to 4.12.
Regarding ELRNVQDVVEDYKKRYIEEINKRT [E17I], the protein stability index stood at 3.57.
For the variant ELRNVQDSVEDYKKRYEEEINKRT [V8S], the protein stability index is 4.53.
Consider ELRNVQDPVEDYKKRYEEEINKRT [V8P], for which the protein stability index stood at 3.67.
As for ELRNVQDDVEDYKKRYEEEINKRT [V8D], the protein stability index is 4.42.
In the case of ELRNVQDEVEDYKKRYEEEINKRT [V8E], the protein stability index worked out at 3.98.
For the variant ELRNVQDMVEDYKKRYEEEINKRT [V8M], the protein stability index came to 3.23.
In the case of EARNVQDVVEDYKKRYEEEINKRT [L2A], the protein stability index stood at 5.76.
As for ESRNVQDVVEDYKKRYEEEINKRT [L2S], the protein stability index came out at 5.01.
For EDRNVQDVVEDYKKRYEEEINKRT [L2D], the protein stability index is 5.94.
Consider ELRNVQDVVEDYKCRYEEEINKRT [K14C], for which the protein stability index turned out to be 3.3.
Regarding ELRNVQDVVEDYKARYEEEINKRT [K14A], the protein stability index is 3.17.
With ELRNVQDVVEDYKHRYEEEINKRT [K14H], the protein stability index stood at 4.26.
For the variant ELRNVQDVVEDYKRRYEEEINKRT [K14R], the protein stability index came to 3.51.
For ELRNVQDVVEDYKKRYEEEWNKRT [I20W], the protein stability index was found to be 3.2.
Turning to ELRNVQDVVEDYKKRYEEERNKRT [I20R], the protein stability index is 3.22.
In the case of ELRNVQDVVEDYKKRYEEEYNKRT [I20Y], the protein stability index was 3.15.
Under ELRNVQDVVEDYKKRYEEEHNKRT [I20H] stands 4.07; under ELRNVQDVVEDYKKRYEEENNKRT [I20N], 4.
For the variant ELRNVQDVVEDYKKRYEEECNKRT [I20C], the protein stability index came to 4.07.
On to ELRNVQDVVEDYKKRYEEEGNKRT [I20G], for which the protein stability index came to 4.05.
As for ELRNVQDVVEDYWKRYEEEINKRT [K13W], the figure is 3.34; as for ELRNVQDVVEDYAKRYEEEINKRT [K13A], 4.07; as for ELRNVQDVVEDYVKRYEEEINKRT [K13V], 3.25.
Regarding ELRNVQDVVEDYIKRYEEEINKRT [K13I], the protein stability index amounted to 3.27.
In the case of ELRNVQDVVEDYHKRYEEEINKRT [K13H], the protein stability index worked out at 3.73.
For the variant ELRNVQDVVEDYKKRYEEEINKLT [R23L], the protein stability index amounted to 3.63.
Consider ELRNVQDVVEDYKKRYEEEINKET [R23E], for which the protein stability index was 4.63.
For the variant ELRNVQDVVEDYKKRYEEEINKHT [R23H], the protein stability index was found to be 4.09.
In the case of ELRNVQDVVEDYKKRYEEEINKPT [R23P], the protein stability index is 3.56.
As for ELRNVQDVVEDYKKRYEEEINKVT [R23V], the protein stability index turned out to be 3.93.
On to KLRNVQDVVEDYKKRYEEEINKRT [E1K], for which the protein stability index was 3.95.
HLRNVQDVVEDYKKRYEEEINKRT [E1H]: the protein stability index was determined as 4.05.
As for ELRNVQDVVEDYKKHYEEEINKRT [R15H], the figure is 2.8.
As for ELRNVQDVVEDYKKTYEEEINKRT [R15T], the figure is 4.68; as for ELRNVQDVVEDYKKIYEEEINKRT [R15I], 4.28; as for ELRNVQDVVWDYKKRYEEEINKRT [E10W], 2.43.
As for ELRNVQDVVVDYKKRYEEEINKRT [E10V], the protein stability index came to 3.11.
Under ELRNVQDVVEDYKKRYEEEINKRN [T24N] stands 3.14; under ELRNVQDVVEDYKKRYEEEINKRP [T24P], 4.39.
Regarding ELRNVQDVVEDYKKRYEEEINKRI [T24I], the protein stability index stood at 4.02.
For the variant ELRNVQDVVEDYKKRYEEEINKRF [T24F], the protein stability index was found to be 2.85.
Under ELRNVQDVVEDYKKRYEEEINKRR [T24R] stands 4.41; under ELRNVQDVVEDYKKRYEEEINKRY [T24Y], 3.18; under ELRKVQDVVEDYKKRYEEEINKRT [N4K], 4.51.
As for ELRAVQDVVEDYKKRYEEEINKRT [N4A], the protein stability index stood at 4.38.
Consider ELRMVQDVVEDYKKRYEEEINKRT [N4M], for which the protein stability index worked out at 3.77.
As for ELRHVQDVVEDYKKRYEEEINKRT [N4H], the figure is 4.45; as for ELQNVQDVVEDYKKRYEEEINKRT [R3Q], 4.13; as for ELENVQDVVEDYKKRYEEEINKRT [R3E], 4.15.
As to ELRNVQDVVEDYKKRYEEPINKRT [E19P], the protein stability index came out at 4.28.
Under ELRNVQDVVEDYKKRYEEWINKRT [E19W] stands 2.92; under ELRNVQDVVEDYKKRYEECINKRT [E19C], 3.9; under ELRNVQDVHEDYKKRYEEEINKRT [V9H], 4.4.
On to ELRNVQDVDEDYKKRYEEEINKRT [V9D], for which the protein stability index was found to be 4.93.
As for ELRNVQDVWEDYKKRYEEEINKRT [V9W], the protein stability index is 4.36.
Regarding ELRNVQDVEEDYKKRYEEEINKRT [V9E], the protein stability index came out at 4.64.
For the variant ELRNVQDVQEDYKKRYEEEINKRT [V9Q], the protein stability index worked out at 3.66.
ELRNVQDVTEDYKKRYEEEINKRT [V9T]: the protein stability index worked out at 3.73.
Turning to ELRNVQDVVEDYKKRYEEEINPRT [K22P], the protein stability index was 3.47.
ELRNVQDVVEDYKKRYEEEINART [K22A]: the protein stability index was 3.74.
For the variant ELRNVQDVVEDYKKRYEEEINLRT [K22L], the protein stability index turned out to be 3.28.
In the case of ELRNVQDVVEDYKKRYEEEINERT [K22E], the protein stability index came out at 3.43.
For the variant ELRNVMDVVEDYKKRYEEEINKRT [Q6M], the protein stability index was found to be 3.14.
ELRNVNDVVEDYKKRYEEEINKRT [Q6N]: the protein stability index stood at 4.58.
On to ELRNVQDVVEDYKKRYEEEIHKRT [N21H], for which the protein stability index stood at 4.26.
In the case of ELRNVQDVVEDYKKRYEEEIAKRT [N21A], the protein stability index was 4.15.
On to ELRNVQDVVEDYKKRYEEEIFKRT [N21F], for which the protein stability index is 3.55.
On to ELRNVQDVVEDYKKRYEEEICKRT [N21C], for which the protein stability index turned out to be 3.73.
As for ELRNVQDVVEDTKKRYEEEINKRT [Y12T], the protein stability index was determined as 4.05.
Under ELRNVQDVVEDKKKRYEEEINKRT [Y12K] stands 3.08.
For the variant ELRNVQDVVEDFKKRYEEEINKRT [Y12F], the protein stability index is 3.85.
As to ELRNVQDVVEDEKKRYEEEINKRT [Y12E], the protein stability index stood at 2.66.
Under ELRNVQDVVEDDKKRYEEEINKRT [Y12D] stands 4.2.
